Assay results from the supplement of paper PMC9732359.
± gives the uncertainty stated by the source.

Assay: protein stability index of a GFP-peptide fusion (yeast GPS) (PSI 1-4); higher = more stable; sorted into four equal gates, so the index is relative within each strain
How it was run: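 Mid-log yeast cultures in leucine-free medium, carrying a pooled plasmid library, were sorted into four equal gates by their GFP/Cherry fluorescence ratio. Each plasmid expressed Cherry along with GFP fused upstream of a tiled 17-residue yeast protein peptide. Plasmids recovered from each gate were PCR-amplified and Illumina-sequenced, with reads assigned to strains by barcodes. The protein stability index was obtained by summing each gate's read frequency weighted by its gate number.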

Sequence | protein stability index (doa10∆) | protein stability index (pdr5∆) | protein stability index (san1∆) | protein stability index (ubr1∆)
AAAYSHELPRYGITHGL [RPL5] | 2.64 ± 0.081 | 2.93 ± 0.064 | 2.98 ± 0.052 | 2.96 ± 0.074
AAGANVDNVWADVYAKA [RPP1B] | 3.2 ± 0.096 | 3.16 ± 0.14 | 2.77 ± 0.14 | 2.96 ± 0.12
AAKIIYLAHEDNKEKDF [PRE10] | 2.81 ± 0.19 | 3.18 ± 0.098 | 3.25 ± 0.11 | 3.01 ± 0.23
AALGEVASMELKPTNDM [SIR2] | 3.46 ± 0.13 | 3.33 ± 0.12 | 3.52 ± 0.067 | 3.17 ± 0.13
AALIASKVYYNLGEYES [RPN2] | 1.88 ± 0.077 | 1.6 ± 0.066 | 1.33 ± 0.067 | 1.69 ± 0.051
AAPPSTNFEILNEMLNT [DIS3] | 2.9 ± 0.078 | 2.83 ± 0.11 | 2.95 ± 0.075 | 3.04 ± 0.061
AAPSAADIKAVVESVGA [RPP2B] | 3.08 ± 0.1 | 3.06 ± 0.073 | 3.05 ± 0.094 | 3.29 ± 0.084
AASAAGYDRHITIFSPE [SCL1] | 2.86 ± 0.11 | 2.76 ± 0.075 | 2.87 ± 0.064 | 2.95 ± 0.051
ACSSSGRETILSNFNAD [SIR3] | 2.39 ± 0.037 | 2.16 ± 0.04 | 2.44 ± 0.045 | 2.75 ± 0.042
ADAQIQRETYDSNESDD [YLR335W/NUP2] | 2.07 ± 0.22 | 3.38 ± 0.21 |  | 2.66 ± 0.21
ADCQAELTKTKSSLYSA [YIL149C/MLP2] | 2.6 ± 0.055 | 2.59 ± 0.055 | 2.46 ± 0.069 | 2.23 ± 0.045
ADEDDEDAKYVINLKQI [RPT1] | 1.99 ± 0.13 | 2.66 ± 0.16 | 1.8 ± 0.2 | 2.61 ± 0.085
ADESKMAKLNECPLDPG [RET1] | 2.64 ± 0.083 | 2.74 ± 0.095 | 2.85 ± 0.082 | 2.08 ± 0.079
ADINKNFLSVITNKHQE [RPN2] | 1.93 ± 0.074 | 2.11 ± 0.06 | 1.84 ± 0.087 | 1.71 ± 0.057
ADKKDDSESNSEPIDLI [ITC1] | 3.05 ± 0.079 | 3.32 ± 0.087 | 3.02 ± 0.12 | 3.35 ± 0.081
ADNKEDVKKPFSFGTSQ [YLR335W/NUP2] | 3.42 ± 0.1 | 3.09 ± 0.096 | 2.75 ± 0.16 | 3.13 ± 0.099
ADNSGARNLYIIAVKGS [RPL23A] | 1.55 ± 0.049 | 1.63 ± 0.055 | 1.33 ± 0.11 | 1.53 ± 0.057
ADNTKDKEKEENNDDAL [MED4] | 2.86 ± 0.14 | 3.04 ± 0.11 | 2.98 ± 0.078 | 3.16 ± 0.082
ADVFRRCLVAVIQQDKY [SRP72] | 1.6 ± 0.11 | 2.17 ± 0.066 | 1.86 ± 0.1 | 2.74 ± 0.18
ADVSIKSILQEIRRSLS [POP5] | 1.59 ± 0.08 | 2.66 ± 0.083 | 2.44 ± 0.14 | 1.32 ± 0.06
ADVTHFVKPGTALDAEG [DIS3] | 2.9 ± 0.094 | 3.33 ± 0.2 | 3.04 ± 0.076 | 3.08 ± 0.081
AEDVALNEQVKKFFLNN [NAS6] | 2.12 ± 0.058 | 2.18 ± 0.069 | 2.11 ± 0.067 | 2.04 ± 0.068
AEEAAAEEEEESDDDMG [RPP0] | 3.62 ± 0.12 | 2.94 ± 0.15 | 3.23 ± 0.056 | 3.27 ± 0.068
AEEAIVNAMRVLYYRDA [PRE4] |  | 3.33 ± 0.17 | 2.73 ± 0.2 | 
AEEFDFNVPVVSKQLGN [YAR002W/NUP60] | 2.47 ± 0.18 | 1.35 ± 0.17 | 1.28 ± 0.14 | 1.14 ± 0.11
AEEIGVEHLLRDVRDQA [RPN8] | 3.2 ± 0.14 |  | 2.96 ± 0.15 | 

Sequence | protein stability index (doa10∆) | protein stability index (pdr5∆) | protein stability index (san1∆) | protein stability index (ubr1∆)
AEFKKENLADLDYQIGN [LIN1] | 3.29 ± 0.086 | 3.32 ± 0.068 | 3.24 ± 0.057 | 3.26 ± 0.071
AEKKVVRLTSRQRGRIA [RPL17A] | 2.88 ± 0.18 | 1.28 ± 0.074 | 1.45 ± 0.19 | 1.14 ± 0.093
AELDDCRGVSENVILGQ [RPO21] | 3.64 ± 0.14 | 3.68 ± 0.16 | 3.24 ± 0.07 | 3.56 ± 0.2
AELKLAGEFGLKNKKEI [RPS9A] | 3.08 ± 0.11 | 3.21 ± 0.15 | 3.2 ± 0.18 | 3.21 ± 0.12
AETDYVDPKRLAMVIIK [DSN1] | 3.13 ± 0.066 | 3.35 ± 0.074 | 3.03 ± 0.056 | 3.53 ± 0.06
AETQGSKVVIDSIIDNI [IRR1] | 2.79 ± 0.098 | 3.26 ± 0.07 | 3.08 ± 0.12 | 2.99 ± 0.039
AFGVSVAFLDNDLGKFI [RPN7] | 3.17 ± 0.086 | 3.16 ± 0.1 | 3.07 ± 0.081 | 3.28 ± 0.057
AFHTAVLRLNAIPLLKV [NUT1] | 1.94 ± 0.059 | 2.43 ± 0.053 | 2.35 ± 0.07 | 1.99 ± 0.05
AFNQVEIRPEMLGHYLG [RPS15] | 2.92 ± 0.12 | 3.09 ± 0.19 | 3.44 ± 0.12 | 3.19 ± 0.15
AFQLADGIHYILNHIGQ [PRP8] | 2.71 ± 0.14 | 2.97 ± 0.16 | 2.71 ± 0.24 | 2.65 ± 0.14
AFTCFCIKKIMENNEPA [SRB8] | 2.21 ± 0.062 | 2.64 ± 0.077 | 2.38 ± 0.09 | 2.15 ± 0.079
AFVSVYSKNNPNLLFSM [PRP8] | 1.93 ± 0.063 | 2.74 ± 0.058 | 2.61 ± 0.064 | 2.71 ± 0.038
AGANDTSNNETNNGNDD [GRR1] | 2.8 ± 0.048 | 2.23 ± 0.066 | 2.87 ± 0.072 | 2.89 ± 0.059
AGDWKYDRQLSSLFLDG [FAS2] | 2.16 ± 0.057 | 2.81 ± 0.065 | 2.34 ± 0.11 | 2.23 ± 0.056
AGERKIPHDLNFLQESY [TAF14] | 2.83 ± 0.086 | 3 ± 0.079 | 2.71 ± 0.064 | 2.62 ± 0.071
AGGPDMTTPQNISSSQQ [DSN1] | 2.83 ± 0.044 | 3.04 ± 0.04 | 2.83 ± 0.037 | 2.93 ± 0.04
AGGQRIVDDYWESLAKK [SWP82] | 1.84 ± 0.19 | 2.42 ± 0.092 | 2.45 ± 0.13 | 2.39 ± 0.15
AGIKTRKFVFNPPKPRK [CYT1] | 3.06 ± 0.06 | 3.19 ± 0.074 | 3.03 ± 0.06 | 3.07 ± 0.063
AGILRGYDIFLNVVLDD [SMX2] | 3.14 ± 0.055 | 2.38 ± 0.06 | 2.51 ± 0.084 | 2.75 ± 0.051
AGKADTSIRLEGDELEN [SRB4] | 2.67 ± 0.089 | 2.97 ± 0.12 | 2.91 ± 0.088 | 3.25 ± 0.077
AGLDEDGKGAVYSFDPV [PRE7] | 2.58 ± 0.29 | 3 ± 0.2 |  | 2.87 ± 0.15
AGQLALDLANSGDESNV [YDL116W/NUP84] | 2.93 ± 0.29 |  | 2.71 ± 0.26 | 3 ± 0.12
AGRKFKSRRCDDMLYYI [POP4] | 2.96 ± 0.094 | 3.06 ± 0.094 | 3.21 ± 0.084 | 3.04 ± 0.068
AGVVQDIGSDPTLPRSD [RPB9] | 2.83 ± 0.078 | 3.2 ± 0.093 | 2.9 ± 0.061 | 2.94 ± 0.047
AHAQHQPSQQPQQAQQQ [GAL11] | 2.92 ± 0.041 | 3.03 ± 0.037 | 3 ± 0.032 | 2.98 ± 0.031
AHELQSEDVSRDHEKDT [YIL149C/MLP2] | 2.38 ± 0.085 | 2.73 ± 0.072 | 2.8 ± 0.061 | 2.68 ± 0.082
